The values that follow come from patent US20250276077A1 (IMMUNOME, published 2025).

Where a chain is given by its changes, count along the chain named.

B1: AB-009814 (antibody, mouse IgG2a, V domains shown)
VH: QVQLQQWGAGLLKPSETLSLTCAVYGGSFSDYYWSWIRQPPGKGLEWIGEVNHRGSINYNPSLKSRVTISVDPSKNQFSLKLTSVTAADTAVYYCAKPLRPHCTNGVCYSGDAFDIWGQGTMVTVAS
VL: SYVLTQPPSVSVAPGQTARITCGGNNIGSKNVHWYQQKPGQAPVLVVYDDSDRPSGIPEQFSGSNSGNTATLTISRVEAGDEADYYCQVWDSSSDHLVFGGGTKLTVL
B2: AB-009812 (antibody, mouse IgG2a, V domains shown)
VH: QVQLQQWGAGLLKPSETLSLTCAVYGGSFSDYYWSWIRQPPGKGLEWIGEVNHSGSINYNNYNPSLKSRVTISVDPSKNQFSLKLTSVTAADTAVYYCAKPLRPHCTNGVCYSGDAFDIWGQGTMVTVAS
VL: B1 VL
B3: AB-009816 (antibody, mouse IgG2a, V domains shown)
VH: B2 VH with S54R, P76A
VL: B1 VL
B4: AB-009817 (antibody, mouse IgG2a, V domains shown)
VH: B2 VH with S54R, G109A
VL: B1 VL
B5: AB-009813 (antibody, mouse IgG2a, V domains shown)
VH: B2 VH with S54A
VL: B1 VL
B6: AB-010367 (antibody, V domains shown)
VH: B2 VH with D31G, V51I, S54Q, P76T, T86S
VL: B1 VL with Q60R, L97V
B7: AB-010359 (antibody, V domains shown)
VH: B2 VH with V51I, S54R, P76T, T86S
VL: B1 VL with Q60R, L97V
B8: AB-010364 (antibody, mouse IgG2a, V domains shown)
VH: B2 VH with D31G, V51I, S54A, P76T, T86S
VL: B1 VL with L97V
B9: AB-010360 (antibody, mouse IgG2a, V domains shown)
VH: B2 VH with D31G, V51I, S54R, P76T, T86S
VL: B1 VL
B10: AB-010358 (antibody, mouse IgG2a, V domains shown)
VH: B2 VH with V51I, S54R, P76T, T86S
VL: B1 VL with Q60R
B11: AB-010362 (antibody, mouse IgG2a, V domains shown)
VH: B2 VH with D31G, V51I, S54R, P76T, T86S
VL: B1 VL with Q60R
B12: AB-010365 (antibody, V domains shown)
VH: B2 VH with D31G, V51I, S54A, P76T, T86S
VL: B1 VL with Q60R, L97V
B13: AB-010366 (antibody, mouse IgG2a, V domains shown)
VH: B2 VH with D31G, V51I, S54Q, P76T, T86S
VL: B1 VL with L97V
B14: AB-010692 (antibody, V domains shown)
VH: B2 VH with D31G, V51I, S54R, P76T, T86S
VL: B1 VL with G23R, Q60R, S92H, L97V
B15: AB-009808 (antibody, mouse IgG2a, V domains shown)
VH: B1 VH with V51I, R54S, I57T, L99F, A126S
VL: B1 VL
B16: AB-009807 (antibody, mouse IgG2a, V domains shown)
VH: B1 VH with S30N, R54S, I57T, N58S, P73T, T83S, L99F, A126S
VL: B1 VL with V44A
B17: AB-009806 (antibody, mouse IgG2a, V domains shown)
VH: B1 VH with V51I, R54S, I57T, L99F, A126S
VL: B1 VL with S29T
B18: AB-009805 (antibody, mouse IgG2a, V domains shown)
VH: QVQLQQWGAGLLKPSETLSLTCAVYGGSLSDYHWSWIRQPPGKGLEWIGEINHSGSTNYNPSLKSRVTISVDTSKNQFSLKLSSVSAADTAVYYCAKPFRPHCTNGVCHSGDAFDIWGQGTMATVSS
VL: B1 VL
B19: AB-010143 (antibody, mouse IgG2a, V domains shown)
VH: B2 VH with S54R, P76T
VL: B1 VL with L97V
B20: AB-010146 (antibody, mouse IgG2a, V domains shown)
VH: B2 VH with S54R, P76T, A129S
VL: B1 VL
B21: AB-010151 (antibody, mouse IgG2a, V domains shown)
VH: B2 VH with V51I, S54R, P76T, T86S, A129S
VL: B1 VL
B22: AB-010148 (antibody, mouse IgG2a, V domains shown)
VH: B2 VH with V51I, S54R, P76T, T86S
VL: B1 VL
B23: AB-010141 (antibody, mouse IgG2a, V domains shown)
VH: B2 VH with D31G, S54R, P76T
VL: B1 VL
B24: AB-010145 (antibody, mouse IgG2a, V domains shown)
VH: B2 VH with S54R, P76T, T86S
VL: B1 VL
B25: AB-010150 (antibody, mouse IgG2a, V domains shown)
VH: B2 VH with S54R, P76T, T86S, A129S
VL: B1 VL
B26: AB-010147 (antibody, mouse IgG2a, V domains shown)
VH: B2 VH with S54R, P76T
VL: B1 VL with Q60R
B27: AB-010144 (antibody, mouse IgG2a, V domains shown)
VH: B2 VH with V51I, S54R, P76T
VL: B1 VL

For one experiment, the target named is T1, Human EphA2 (ephrin receptor A2) on cells (human, UniProt P29317 25-976). The experiment can be described thus: cell-based or functional assay.
T1 sequence (P29317 25-976): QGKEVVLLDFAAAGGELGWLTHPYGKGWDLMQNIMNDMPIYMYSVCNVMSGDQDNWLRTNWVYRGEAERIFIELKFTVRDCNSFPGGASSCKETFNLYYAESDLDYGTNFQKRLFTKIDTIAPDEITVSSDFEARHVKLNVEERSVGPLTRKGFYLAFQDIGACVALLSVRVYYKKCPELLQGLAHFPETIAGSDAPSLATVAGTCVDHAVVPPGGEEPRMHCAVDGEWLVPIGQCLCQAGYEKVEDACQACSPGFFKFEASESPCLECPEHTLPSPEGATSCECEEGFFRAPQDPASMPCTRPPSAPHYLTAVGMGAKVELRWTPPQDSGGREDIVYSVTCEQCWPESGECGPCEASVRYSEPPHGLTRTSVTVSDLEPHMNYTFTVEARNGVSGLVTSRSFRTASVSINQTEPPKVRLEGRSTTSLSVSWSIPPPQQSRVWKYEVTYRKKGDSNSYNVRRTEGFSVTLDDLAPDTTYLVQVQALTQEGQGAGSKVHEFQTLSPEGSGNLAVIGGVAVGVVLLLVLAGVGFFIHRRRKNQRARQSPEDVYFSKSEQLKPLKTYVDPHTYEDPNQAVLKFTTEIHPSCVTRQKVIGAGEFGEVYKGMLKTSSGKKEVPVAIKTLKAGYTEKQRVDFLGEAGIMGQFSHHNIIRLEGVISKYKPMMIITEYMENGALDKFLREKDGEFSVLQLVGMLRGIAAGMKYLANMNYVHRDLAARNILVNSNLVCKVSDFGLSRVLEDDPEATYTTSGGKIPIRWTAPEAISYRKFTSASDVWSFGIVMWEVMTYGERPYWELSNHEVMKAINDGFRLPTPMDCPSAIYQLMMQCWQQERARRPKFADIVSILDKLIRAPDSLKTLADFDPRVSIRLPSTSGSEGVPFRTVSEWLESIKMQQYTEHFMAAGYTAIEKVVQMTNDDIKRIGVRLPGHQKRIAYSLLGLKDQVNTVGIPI
Take B1: the “ADCC Delta, A549 cells” value was 36 and the “ADCC EC50 (nM), A549 cells” value is 62.8 nM.

B2: the “ADCC Delta, A549 cells” value worked out at 41.1 and the “ADCC EC50 (nM), A549 cells” value was found to be 51 nM.

As for B3, the “ADCC Delta, A549 cells” value was found to be 58 and the “ADCC EC50 (nM), A549 cells” value stood at 12.5 nM.

Take B4: the “ADCC Delta, A549 cells” value amounted to 0.

Turning to B5, the “ADCC Delta, A549 cells” value came out at 39.9 and the “ADCC EC50 (nM), A549 cells” value was found to be 26 nM.

Another experiment deals with T1, Human EphA2 (ephrin receptor A2) on …. Description: cell-based or functional assay. This is another data set of the same source.
Regarding B6, the “ADCC EC50” value came to 42.7 nM and the “ADCC Fold-improved (against AB-008873)” value is 0.81 fold.

As for B7, the “ADCC EC50” value is 25.3 nM and the “ADCC Fold-improved (against AB-008873)” value turned out to be 1.38 fold.

As for B8, the “ADCC EC50” value was found to be 14.5 nM and the “ADCC Fold-improved (against AB-008873)” value was determined as 2.4 fold.

Turning to B9, the “ADCC EC50” value was determined as 4.3 nM and the “ADCC Fold-improved (against AB-008873)” value was determined as 8.09 fold.

Turning to B10, the “ADCC EC50” value stood at 73.3 nM and the “ADCC Fold-improved (against AB-008873)” value is 0.47 fold.

On to B11, for which the “ADCC EC50” value is 12.8 nM and the “ADCC Fold-improved (against AB-008873)” value came to 2.72 fold.

As to B12, the “ADCC EC50” value was 34.6 nM and the “ADCC Fold-improved (against AB-008873)” value worked out at 1.01 fold.

Turning to B13, the “ADCC EC50” value is 28.9 nM and the “ADCC Fold-improved (against AB-008873)” value is 1.2 fold.

Another experiment has the same target. The experiment can be described thus: cell-based or functional assay. This is another data set of the same source.
As to B14, the “ADCC - EC50 (nM), Trial 1, A549” value was found to be 0.21 nM.

A further experiment has the same target. Description: flow cytometry, A549 cells. The procedure:
(§1) Surface binding of the antibodies to in vitro grown cell lines was assessed by flow cytometry. Tumor cells were detached from their culture plate using Versene and counted. Cells were staining in BSA-containing buffer with primary antibody for 30 minutes at 4° C. with shaking. Following, cells were washed and stained with secondary PE-labeled antibody for 30 minutes at 4° C. with shaking. Before analysis on an Intellicyt iQue3 scanner, cells were counterstained with DAPI. MedFI values from live, single cells was expressed as fold over isotype control.
(In flow cytometry, cells or beads pass a laser one at a time.)
Regarding B15, the “Flow Delta activity (MedFI)” value was determined as 29500 MedFI.

In the case of B16, the “Flow Delta activity (MedFI)” value stood at 12700 MedFI.

On to B17, for which the EC50 (read off the curve) (commonly the concentration that produces a half-maximal response) is about 20 nM and the “Flow Delta activity (MedFI)” value was 231000 MedFI.

Regarding B18, the “Flow Delta activity (MedFI)” value came to 75100 MedFI.

The target is the same in a further experiment. The experiment can be described thus: cell-based or functional assay. This is another data set of the same source.
For B19, the “ADCC EC50” value came out at 25.1 nM.

Regarding B20, the “ADCC EC50” value was 66.8 nM.

Consider B21, for which the “ADCC EC50” value was determined as 33.3 nM.

B22: the “ADCC EC50” value was 45 nM.

Consider B23, for which the “ADCC EC50” value stood at 4.6 nM.

Take B24: the “ADCC EC50” value came to 48.9 nM.

As for B25, the “ADCC EC50” value was 65.9 nM.

With B26, the “ADCC EC50” value amounted to 79.4 nM.

In the case of B27, the “ADCC EC50” value worked out at 35.8 nM.

For a further experiment the target is unchanged. The experiment can be described thus: cell-based or functional assay. This is another data set of the same source.
As for B15, the “ADCC Delta activity (%), A549” value amounted to 1.31% and the “ADCP Delta activity (%), A549” value is 12.8%.

For B16, the “ADCC Delta activity (%), A549” value was found to be 0.4% and the “ADCP Delta activity (%), A549” value was found to be 11.5%.

For B17, the “ADCC Delta activity (%), A549” value amounted to 14.5% and the “ADCP Delta activity (%), A549” value is 17.9%.

For the molecule B18, the “ADCC Delta activity (%), A549” value came to 5.06% and the “ADCP Delta activity (%), A549” value amounted to 17.3%.

The next experiment has the same target. Description: flow cytometry on A549 cells. The protocol:
as §1
As for B1, the EC50 (in general, the midpoint of the concentration-response curve) worked out at 11.5 nM and the “Flow Delta” value stood at 407000.

For the molecule B2, the EC50 was 9.6 nM and the “Flow Delta” value turned out to be 568000.

Turning to B3, the EC50 was found to be 5.5 nM and the “Flow Delta” value was 670000.

In the case of B4, the “Flow Delta” value is 0 and the binding result is “no binding (tested: tested up to 1 µM)”.

Turning to B5, the EC50 is 6.8 nM and the “Flow Delta” value worked out at 578000.
